Data as given in patent US7351690B2, “Knockout identification of target-specific sites in peptides” (priority 2000, dated 2008).
Square brackets hold non-standard residues; d marks the D form. Ends that are not written are not given here. Nle = CCCC[C@H](N)C(=O)O

Legend:
MC1-R = biological target: T1, MC1-R (Mus musculus, UniProt Q01727); assay: competitive inhibition binding assay, 125I-NDP-alpha-MSH, B-16 mouse melanoma cell membranes; conditions: 1 μM test peptide; 0.4 nM 125I-NDP-alpha-MSH; B-16 mouse melanoma cell membranes
T1 construct: membranes prepared from hMC3-R, hMC4-R, hMC5-R, and B-16 mouse melanoma cells (containing MC1-R); endogenous in cells; host or cells: B-16 mouse melanoma cells (membranes)
Method: (§1) The competitive inhibition binding assay was conducted using membranes prepared from hMC3-R, hMC4-R, hMC5-R, and B-16 mouse melanoma cells (containing MC1-R) using 0.4 nM ^125I-NDP-alpha-MSH (New England Nuclear, Boston, Mass., USA) in 50 mM HEPES buffer containing 1 mM MgCl2, 2 mM CaCl2, and 5 mM KCl, at pH 7.2. The assay tube also contained a chosen concentration of the test peptide of this invention complexed to a rhenium metal ion, typically at a 1 μM concentration, for determining its efficacy in inhibiting the binding of ^125I-NDP-alpha-MSH to its receptor. Non-specific binding was measured by complete inhibition of binding of ^125I-NDP-alpha-MSH in the assay with the presence of 1 μM alpha-MSH. Incubation was for 90 minutes at room temperature, after which the assay mixture was filtered and the membranes washed three times with ice cold buffer. The filter was dried and counted in a gamma counter for remaining radioactivity bound to the membranes. 100% specific binding was defined as the difference in radioactivity (cpm) bound to cell membranes in the absence and presence of 1 μM alpha-MSH. The cpm obtained in presence of test compounds were normalized with respect to 100% specific binding to determine the percent inhibition of ^125I-NDP-alpha MSH binding. Each assay was conducted in triplicate and the actual mean valves are described.

hMC3-R = biological target: T2, hMC3-R (Homo sapiens, UniProt P41968); assay: competitive inhibition binding assay, 125I-NDP-alpha-MSH, hMC3-R membranes; conditions: 1 μM test peptide; 0.4 nM 125I-NDP-alpha-MSH; hMC3-R membranes
T2 construct: expressed in transfected cells
Method: as §1

hMC4-R = biological target: T3, hMC4-R (Homo sapiens, UniProt P32245); assay: competitive inhibition binding assay, 125I-NDP-alpha-MSH, hMC4-R membranes; conditions: 1 μM test peptide; 0.4 nM 125I-NDP-alpha-MSH; hMC4-R membranes
T3 construct: expressed in transfected cells
Method: as §1

hMC5-R = biological target: T4, hMC5-R (Homo sapiens, UniProt P33032); assay: competitive inhibition binding assay, 125I-NDP-alpha-MSH, hMC5-R membranes; conditions: 1 μM test peptide; 0.4 nM 125I-NDP-alpha-MSH; hMC5-R membranes
T4 construct: expressed in transfected cells
Method: as §1

T2 sequence (P41968 whole entry): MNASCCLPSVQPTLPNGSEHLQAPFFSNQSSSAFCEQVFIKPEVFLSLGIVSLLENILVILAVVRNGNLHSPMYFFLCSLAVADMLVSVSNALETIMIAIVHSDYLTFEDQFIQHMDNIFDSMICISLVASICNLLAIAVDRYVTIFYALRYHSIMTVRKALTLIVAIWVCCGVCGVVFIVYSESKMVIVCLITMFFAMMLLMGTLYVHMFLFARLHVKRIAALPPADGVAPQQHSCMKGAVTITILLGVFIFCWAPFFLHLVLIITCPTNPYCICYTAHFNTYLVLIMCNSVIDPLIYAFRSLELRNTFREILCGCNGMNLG
T4 sequence (P33032 whole entry): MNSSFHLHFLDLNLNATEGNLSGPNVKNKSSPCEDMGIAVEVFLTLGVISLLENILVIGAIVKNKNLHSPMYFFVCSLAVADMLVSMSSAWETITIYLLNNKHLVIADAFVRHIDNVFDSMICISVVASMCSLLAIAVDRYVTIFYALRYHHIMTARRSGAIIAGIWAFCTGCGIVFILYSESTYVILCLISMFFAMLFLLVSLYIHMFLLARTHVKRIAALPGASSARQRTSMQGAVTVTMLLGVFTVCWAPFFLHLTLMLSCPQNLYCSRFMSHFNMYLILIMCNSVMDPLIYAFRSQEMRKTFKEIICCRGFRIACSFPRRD
T3 sequence (P32245 whole entry): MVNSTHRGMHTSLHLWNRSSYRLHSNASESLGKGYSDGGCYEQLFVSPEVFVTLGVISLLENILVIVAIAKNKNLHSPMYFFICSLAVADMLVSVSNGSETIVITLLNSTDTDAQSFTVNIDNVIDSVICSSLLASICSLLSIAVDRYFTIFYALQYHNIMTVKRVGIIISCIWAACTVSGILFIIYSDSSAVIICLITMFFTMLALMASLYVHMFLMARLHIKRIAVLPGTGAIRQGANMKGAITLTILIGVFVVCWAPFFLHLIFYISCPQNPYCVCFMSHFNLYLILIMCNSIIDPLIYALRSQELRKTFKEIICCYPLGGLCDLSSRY
T1 sequence (Q01727 whole entry): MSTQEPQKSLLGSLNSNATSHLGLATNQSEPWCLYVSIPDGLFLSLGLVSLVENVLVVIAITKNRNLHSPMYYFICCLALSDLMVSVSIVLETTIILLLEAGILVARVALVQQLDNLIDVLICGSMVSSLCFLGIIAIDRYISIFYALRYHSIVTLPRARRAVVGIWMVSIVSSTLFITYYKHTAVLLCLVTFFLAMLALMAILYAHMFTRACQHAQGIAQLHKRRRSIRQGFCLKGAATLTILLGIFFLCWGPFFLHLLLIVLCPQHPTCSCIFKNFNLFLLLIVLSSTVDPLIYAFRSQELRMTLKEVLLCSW

| Substance | % Inhibition at 1 μM at Melanocortin Receptor 1 (MC1-R) | % Inhibition at 1 μM at Melanocortin Receptor 3 (hMC3-R) | % Inhibition at 1 μM at Melanocortin Receptor 4 (hMC4-R) | % Inhibition at 1 μM at Melanocortin Receptor 5 (hMC5-R) |
| --- | --- | --- | --- | --- |
| Ac-Ser-Tyr-Ser-Nle-Glu-D-Cys-His-Phe-Arg-Trp-Gly-Lys-Pro-Val-NH2 (Ac-SYS[Nle]E[dC]HFRWGKPV-NH2; numbers in words are those of the source; also: oxorhenium(V) N3S1 chelate via Cys (Re(V)=O)) [2-9] | 92% | 13% | 35% | 2% |
| Ac-Ser-Tyr-Ser-Nle-Glu-His-Cys-Phe-Arg-Trp-Gly-Lys-Pro-Val-NH2 (Ac-SYS[Nle]EHCFRWGKPV-NH2; not fully specified (bridges); printed as Ac-Ser-Tyr-Ser-Nle-Glu-His-Cys-Phe-Arg-Trp-Gly-Lys-Pro-Val-NH2; numbers in words are those of the source; also: oxorhenium(V) N3S1 chelate (Re(V)=O)) [1-8] | 42% | 0% | 0% | 1% |
| Ac-Ser-Tyr-Ser-Nle-Glu-His-D-Cys-Phe-Arg-Trp-Gly-Lys-Pro-Val-NH2 (CFRWGKPV; Ac-Ser-Tyr-Ser-Nle-Glu-His N-term; D-residue; amide; printed: Cys-Phe-Arg-Trp-Gly-Lys-Pro-Val-) [2-8] | 69% | 0% | 25% | 29% |
| Ac-Ser-Tyr-Ser-Nle-Glu-His-Phe-Arg-Cys-Trp-Gly-Lys-Pro-Val-NH2 (Ac-SYS[Nle]EHFRCWGKPV-NH2; not fully specified (bridges); printed as Ac-Ser-Tyr-Ser-Nle-Glu-His-Phe-Arg-Cys-Trp-Gly-Lys-Pro-Val-NH2; numbers in words are those of the source; also: oxorhenium(V) N3S1 chelate (Re(V)=O)) [1-6] | 29% | 0% | 0% | 0% |
| Ac-Ser-Tyr-Ser-Nle-Glu-His-Phe-Arg-D-Cys-Trp-Gly-Lys-Pro-Val-NH2 (chain 1 Ac-SYS[Nle]EHFR; chain 2 [dC]WGKPV-NH2; not fully specified (bridges); numbers in words are those of the source; also: oxorhenium(V) N3S1 chelate (Re(V)=O)) [2-6] | 46% | 2% | 6% | 6% |
| Ac-Ser-Tyr-Ser-Nle-Glu-His-Phe-Arg-Trp-Cys-Gly-Lys-Pro-Val-NH2 (Ac-SYS[Nle]EHFRWCGKPV-NH2; not fully specified (bridges); printed as Ac-Ser-Tyr-Ser-Nle-Glu-His-Phe-Arg-Trp-Cys-Gly-Lys-Pro-Val-NH2; numbers in words are those of the source; also: oxorhenium(V) N3S1 chelate (Re(V)=O)) [1-5] | 57% | 0% | 0% | 0% |
| Ac-Ser-Tyr-Ser-Nle-Glu-His-Phe-Arg-Trp-D-Cys-Gly-Lys-Pro-Val-NH2 (chain 1 Ac-SYS[Nle]EHFRW; chain 2 [dC]GKPV-NH2; not fully specified (bridges); numbers in words are those of the source; also: oxorhenium(V) N3S1 chelate (Re(V)=O)) [2-5] | 43% | 0% | 4% | 0% |
| Ac-Ser-Tyr-Ser-Nle-Glu-His-Phe-Arg-Trp-Gly-Cys-Lys-Pro-Val-NH2 (Ac-SYS[Nle]EHFRWGCKPV-NH2; not fully specified (bridges); printed as Ac-Ser-Tyr-Ser-Nle-Glu-His-Phe-Arg-Trp-Gly-Cys-Lys-Pro-Val-NH2; numbers in words are those of the source; also: oxorhenium(V) N3S1 chelate (Re(V)=O)) [1-4] | 72% | 0% | 0% | 6% |
| Ac-Ser-Tyr-Ser-Nle-Glu-His-Phe-Arg-Trp-Gly-D-Cys-Lys-Pro-Val-NH2 (chain 1 EHFRWG; chain 2 CKPV; not fully specified; Ac-Ser-Tyr-Ser-Nle N-term; D-residue; amide; printed: Glu-His-Phe-Arg-Trp-Gly-; printed: Cys-Lys-Pro-Val-) [2-4] | 91% | 27% | 40% | 21% |
| Ac-Ser-Tyr-Ser-Nle-Glu-His-Phe-Arg-Trp-Gly-Lys-Cys-Pro-Val-NH2 (Ac-SYS[Nle]EHFRWGKCPV-NH2; not fully specified (bridges); printed as Ac-Ser-Tyr-Ser-Nle-Glu-His-Phe-Arg-Trp-Gly-Lys-Cys-Pro-Val-NH2; numbers in words are those of the source; also: oxorhenium(V) N3S1 chelate (Re(V)=O)) [1-3] | 87% | 0% | 0% | 12% |
| Ac-Ser-Tyr-Ser-Nle-Glu-His-Phe-Arg-Trp-Gly-Lys-D-Cys-Pro-Val-NH2 (Ac-SYS[Nle]EHFRWGK[dC]PV-NH2; not fully specified (bridges); printed as Ac-Ser-Tyr-Ser-Nle-Glu-His-Phe-Arg-Trp-Gly-Lys-D-Cys-Pro-Val-NH2; numbers in words are those of the source; also: oxorhenium(V) N3S1 chelate (Re(V)=O)) [2-3] | 91% | 41% | 25% | 38% |
| Ac-Ser-Tyr-Ser-Nle-Glu-His-Phe-Arg-Trp-Gly-Lys-Gly-Cys-Val-NH2 (Ac-SYS[Nle]EHFRWGKGCV-NH2; not fully specified (bridges); printed as Ac-Ser-Tyr-Ser-Nle-Glu-His-Phe-Arg-Trp-Gly-Lys-Gly-Cys-Val-NH2; numbers in words are those of the source; also: oxorhenium(V) N3S1 chelate (Re(V)=O)) [1-2] | 87% | 6% | 0% | 37% |
| Ac-Ser-Tyr-Ser-Nle-Glu-His-Phe-Arg-Trp-Gly-Lys-Gly-D-Cys-Val-NH2 (Ac-SYS[Nle]EHFRWGKG[dC]V-NH2; not fully specified (bridges); printed as Ac-Ser-Tyr-Ser-Nle-Glu-His-Phe-Arg-Trp-Gly-Lys-Gly-D-Cys-Val-NH2; numbers in words are those of the source; also: oxorhenium(V) N3S1 chelate (Re(V)=O)) [2-2] | 93% | 26% | 28% | 32% |
| Ac-Ser-Tyr-Ser-Nle-Glu-His-Phe-Arg-Trp-Gly-Lys-Gly-Val-Cys-NH2 (Ac-SYS[Nle]EHFRWGKGVC-NH2; not fully specified (bridges); printed as Ac-Ser-Tyr-Ser-Nle-Glu-His-Phe-Arg-Trp-Gly-Lys-Gly-Val-Cys-NH2; numbers in words are those of the source; also: oxorhenium(V) N3S1 chelate (Re(V)=O)) [1-1] | 95% | 48% | 63% | 68% |
| Ac-Ser-Tyr-Ser-Nle-Glu-His-Phe-Arg-Trp-Gly-Lys-Gly-Val-D-Cys-NH2 (EHFRWGKGV; not fully specified; Ac-Ser-Tyr-Ser-Nle N-term; D-Cys; amide; printed: Glu-His-Phe-Arg-Trp-Gly-Lys-Gly-Val-) [2-1] | 97% | 72% | 46% | 53% |
